Test results from the supplement of paper PMC10567573.
± gives the standard deviation.

Assay: protein stability index of a GFP-peptide fusion (GPS, HEK-293T) (PSI 1-6); higher = more stable
Details: c terminus: a fixed tail appended
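Note: 24-mer peptide tiles fused after GFP, lentivirally expressed, FACS-sorted into six equal bins by GFP/DsRed ratio, decoded by Illumina sequencing, PSI is the read-weighted mean bin number.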

| Sequence | protein stability index (treatment: DMSO) | protein stability index (treatment: MLN4924 1 uM, 8 h) |
| --- | --- | --- |
| LLEDMRASEAFHWDERGRAAAYSP [ANKRD9] | 2.7 ± 0.44 | 3.18 ± 0.54 |
| SGGYWVGMSTIRPNPGFSMLDFLS [APMAP] | 2.1 ± 0.14 | 2.32 ± 0.97 |
| CEVPTCSLCKVFGAHKDCQVAPLT [TRIM55] | 3.58 ± 0.2 | 3.7 ± 0.25 |
| PSRVHASEVESAVWYVKKFGRYLE [FBXO39] | 2.42 ± 0.16 | 2.27 ± 0.5 |
| MDERLSLLRSPPPPSARHRAHPPQ [KCNA3] | 4.55 ± 0.23 | 4.44 ± 0.19 |
| TSSSTVVSTQRSQDHFHVFVGDLS [TIA1] | 3.34 ± 0.071 | 3.42 ± 0.23 |
| PWLRQDPMPLAPTRSHLWEAAQVV [TRIB3] | 2.5 ± 0.18 | 2.27 ± 0.29 |
| KFAMYPPSMIATGSVGAAICGLQQ [CCND2] | 2.4 ± 0.52 | 2.2 ± 0.4 |
| DPKKLLTQHFVQENYLEYRQVPGS [MAGEA3] | 3.62 ± 0.22 | 3.76 ± 0.13 |
| AVNSGGPLESIDHSVTGFLCEPDP [ALG2] | 4.82 ± 0.21 | 4.91 ± 0.22 |
| ALGNLVEGMDFHRFYFENLLAKNS [CAMK2B] | 2.19 ± 0.24 | 2.35 ± 0.079 |
| ENKVVEKAPVQNEAPALGGGEYQE [BEX5] | 5.41 ± 0.2 | 5.42 ± 0.32 |
| RPVSCSGRDALLDQIRQGIQLKSV [WASL] | 5.08 ± 0.56 | 4.95 ± 0.21 |
| FWRIDEDYPVQVAPLSNGLCCAFS [WSB1] | 2.06 ± 0.43 | 2.41 ± 0.39 |
| ISSGLRGCMLIELALRGRLQLEAC [GOLPH3] | 3.22 ± 0.62 | 2.67 ± 0.21 |
| PRLSQLSVTDVTTSSLRLNWEAPP [TNXB] | 3.5 ± 0.4 |  |
| GFAMYYFTYDPWIGKLLYLEDFFV [SAT1] | 3.16 ± 0.17 | 3.03 ± 0.34 |
| NSLDTTSWAWRGPGVLKVLWLTAS [LPCAT4] | 2.43 ± 0.62 | 2.25 ± 0.47 |
| EGQHPAQLRSDVCTPGGTTIYGLH [PYCR3] | 3.8 ± 0.35 | 3.92 ± 0.39 |
| AQTLHHKSCYNGRFQLLYVACGMV [DNAAF3] | 2.94 ± 0.63 | 2.39 ± 0.72 |
| YKLVGSPPWKEAFRQRCLERMRNS [RPAIN] | 2.74 ± 0.32 | 2.98 ± 0.52 |
| QKLQEITRCKSSEEKKPGELKRLV [TRIM39] | 4.16 ± 0.37 | 4.21 ± 0.17 |
| DRTSHRLHTANLGDSGFLVVRGGE [PPTC7] | 4.08 ± 0.21 | 4.11 ± 0.27 |

| Sequence | protein stability index (treatment: DMSO) | protein stability index (treatment: MLN4924 1 uM, 8 h) |
| --- | --- | --- |
| PLWQCYLGRFNDINVPIRLECVKF [PDS5B] | 2.46 ± 0.54 | 2.35 ± 0.28 |
| MQVLVTAISPGRFPEALDELPLPP [ANKRD9] | 2.17 ± 0.48 | 2.23 ± 0.19 |
| RKRTAHERAKELYSSGEFSSGRKW [INTS4] | 4.06 ± 0.32 | 4.08 ± 0.31 |
| GRARFTTYEVRMRTNLPIFKLKES [SNX12] | 2.27 ± 0.11 | 2.17 ± 0.22 |
| MVLSRPCHPDDQFTTSILRHWCMK [INTS3] | 2.21 ± 0.18 | 2.26 ± 0.24 |
| LEDELDKSVQGTGLAFIAFTEAMT [SLC6A17] | 2.73 ± 0.35 | 2.82 ± 0.51 |
| GGIVTDTPASNHLPGWEDIESKIP [SLC19A2] | 4.77 ± 0.17 | 4.87 ± 0.12 |
| LYPSLGAGYRLGPAQPGADSSFPP [TBX6] | 3.38 ± 0.039 | 3.39 ± 0.24 |
| LGGAAFLGTAIFIEADRRRAQLHV [SPNS1] | 2.35 ± 0.74 | 2.32 ± 0.53 |
| YLELDRLVWRNSIRSSFISSLSFF [FBXO39] | 2.86 ± 0.37 | 2.95 ± 0.45 |
| RKMLEQGYSPNGRDANGWTLLHFS [ASB7] | 2.34 ± 0.14 | 2.49 ± 0.21 |
| ENEETGEFSIDNYPTDNTKVMIFK [MIA2] |  | 4.217 ± 0.033 |
| PLSDKGTTPLQLAIIRERSSCVKI [ASB7] | 2.64 ± 0.22 | 2.81 ± 0.4 |
| YVHHQALLDVKNIAHQNKFGEDMP [HDAC6] | 2.83 ± 0.54 | 3.49 ± 0.57 |
| DFFIVGCEVIFCVFIFYYVVEEIL [PKD2L1] | 1.92 ± 0.47 | 2 ± 0.3 |
| NVLKSYIGLGHIYSGTFALIGAAA [CLCN6] | 3.63 ± 0.91 | 3.04 ± 0.32 |
| MERPMSQADLELDYNPPRVQLSDE [CBY2] | 5.36 ± 0.22 | 5.22 ± 0.21 |
| AERLRAELLDLKAGGFSIRNQKGE [MYORG] | 4.1 ± 0.26 | 4.24 ± 0.29 |
| DEQKEEEEEEGEEEELIRIFQEQQ [FAM9B] | 5.51 ± 0.34 | 5.47 ± 0.29 |
| NKKYYKKFSIPDLDRHQLPLDDAL [DPCD] | 3.46 ± 0.13 | 3.55 ± 0.26 |
| VIRGLNTIPLFVQLLYSPIENIQR [CTNNB1] | 2.76 ± 0.3 | 2.68 ± 0.4 |
| EAAEPPKTPPSSCDSTNAAIAKQA [KMT5A] | 5.42 ± 0.29 | 5.34 ± 0.13 |
